{"source": "paper PMC6615313"}
{"test_system": "T1, SigL (sigma54) (Clostridium beijerinckii NCIMB 8052), ORF:07123114", "T1 sequence": "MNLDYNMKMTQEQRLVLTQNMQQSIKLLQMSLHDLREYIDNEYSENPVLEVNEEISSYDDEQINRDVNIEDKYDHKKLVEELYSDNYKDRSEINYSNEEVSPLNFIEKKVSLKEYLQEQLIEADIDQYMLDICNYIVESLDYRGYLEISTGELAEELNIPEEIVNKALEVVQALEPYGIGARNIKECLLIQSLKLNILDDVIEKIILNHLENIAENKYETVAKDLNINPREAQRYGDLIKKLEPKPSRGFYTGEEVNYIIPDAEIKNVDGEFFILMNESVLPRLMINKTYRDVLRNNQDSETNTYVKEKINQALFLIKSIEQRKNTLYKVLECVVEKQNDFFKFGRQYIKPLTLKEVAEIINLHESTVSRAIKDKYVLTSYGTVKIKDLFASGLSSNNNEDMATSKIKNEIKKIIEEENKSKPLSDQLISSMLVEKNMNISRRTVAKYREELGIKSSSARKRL", "assay": "EMSA", "settings": "not stated; EMSA as described previously (ref 21), Cy5-labeled DNA, SigL up to 1500 nM"}
{"sequence": "AGCCAGTGGCGATAAGGGGGAAAATCTTTAAAAGTGTACAAAAAAAACACATATTTTTCTGATTTATTTTATTTAAAAAGGTAAATAGAATTAATAGTAAACAGTTTAAAAAAATAATATTTAAAGAGTTTAGTAGATTTGGAAAAGGTTTTCGACTTTTGGAAAGAAACTTGGCATCCTAATTGCTCTATAAAAAGGTATGAGGAGGGATTATGACTTATCGCCACTGGCT (double strand) [cotX (cotX-gntT) promoter]", "binding": "binds"}
{"sequence": "AGCCAGTGGCGATAAGGGTGTACAAAATATAGACATAAATAAAATTGATATATTTAGGAATTGATTACGAAAACCACAATATATAAGGTTTCATGGAAAAAATATGATTGGCATGCTTATTGCTAATAATAAAATTAACGGGAGTAGTAAGTGAACTAATATATATAACTTAATTTTTCCACAATCTTTAGTGCAATGCTATTTGCTATTTAAGGACTTATCGCCACTGGCT (double strand) [crt (crt-bcd-etfAB-moaC) promoter]", "binding": "binds"}
{"sequence": "AGCCAGTGGCGATAAGCCAGAAAAGAGTAAGATTCTCAAAATAGGACACTAAGTATGTGTCATAATGGCACATAGTGATTTTAAATGTCTTTTTAACAGGTTTCTTGTTTTTGGTATGGCTTTTGCTTATAAAATATAGTGAATATATTAACAGGTATATGTAAATTTTAATATTGCCATACTATTATAAAAAAGGAGAGATAATTCTTATCGCCACTGGCT (double strand) [butA promoter]", "binding": "binds"}
